Measurements as given in publication PMC9241269.

Target: SYT11 (UniProt Q9BT88)
Experiment: co-IP with anti-Myc, blot for GFP-SYT11
Details: reference: Myc-JNK1 wild type

| Substance | binding against the reference (sites T183) | binding against the reference (sites Y185) |
| --- | --- | --- |
| JNK1 (from UniProt P45983) Myc-JNK1 T183A | lost | – |
| JNK1 (from UniProt P45983) Myc-JNK1 Y185F | – | lost |
